A short description of this data set: protein stability index of a GFP-peptide fusion (GPS, HEK-293T) (PSI 1-6); higher = more stable. Particulars: c terminus: a fixed tail appended.

± gives the standard deviation.
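Note: 24-mer peptide tiles fused after GFP, lentivirally expressed, FACS-sorted into six equal bins by GFP/DsRed ratio, decoded by Illumina sequencing, PSI is the read-weighted mean bin number.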

With EEVLCDSCIGNKQKAVKSCLVCQA [TRIM29], the protein stability index is, setting by setting: (treatment: DMSO) 5.52 ± 0.17; (treatment: MLN4924 1 uM, 8 h) 5.22 ± 0.26.
EFFAVTRFLVGMMNGGMSLVAFVL [SLC22A15] displayed a protein stability index (treatment: DMSO) of 2.22 ± 0.24 and a protein stability index (treatment: MLN4924 1 uM, 8 h) of 2.2 ± 0.38.
On the same counts, the results for EGCTGALHILARDVHNRIVIRGLN [CTNNB1] are 2.65 ± 0.23 and 2.71 ± 0.17.
On the same counts, the results for EGKRKAFYTCASHVTVVILFFVPC [OR4A15] are 2.77 ± 0.18 and 3.03 ± 0.38.
Consider EGSLCAAHLPKAQLSGYAVEATRN [FBF1], for which the protein stability index is 4.01 ± 0.17 (treatment: DMSO) and 3.99 ± 0.087 (treatment: MLN4924 1 uM, 8 h).
On the same counts, the results for EGYRVSQALRENTYPFLAMIMLKD [FAF2] are 2.36 ± 0.2 and 2.44 ± 0.29.
For EKEKEKHKVKAEEEKKAKVAPPAK [BRD3] the same measures were 5.38 ± 0.34 and 5.56 ± 0.14.
On the same counts, the results for EKINKIKWLPQQNAAHSLLSTNDK [PPP2R2C] are 4.07 ± 0.19 and 4.15 ± 0.11.
For EKLNIPWNHIRLQRTAKGKPVLAK [AASDHPPT], the protein stability index is, setting by setting: (treatment: DMSO) 3.16 ± 0.2; (treatment: MLN4924 1 uM, 8 h) 3.05 ± 0.33.
Take ELDDTLKYSFLQFDPAPRRGEPHV [PPP2CA]: the protein stability index (treatment: DMSO) is 3.2 ± 0.32 and the protein stability index (treatment: MLN4924 1 uM, 8 h) came out at 3.41 ± 0.31.
Regarding ELDELASKAPVLTYGQPKQAPPAD [EFHC1], the protein stability index runs as follows: (treatment: DMSO) 5.44 ± 0.25; (treatment: MLN4924 1 uM, 8 h) 5.59 ± 0.15.
Take ELKVKDSQPIDLSACTVALHIFQL [TRIP13]: the protein stability index came out at 2.58 ± 0.47 (treatment: DMSO) and 2.15 ± 0.6 (treatment: MLN4924 1 uM, 8 h).
For ELQGDFSVPDVPKSMAWCENSICV [VPS39] the same measures were 2.67 ± 0.22 and 2.67 ± 0.18.
For ELQREWLGNREALIQFLEQVHQGI [CPN1] the same measures were 2.76 ± 0.12 and 2.97 ± 0.3.
Turning to EMQQQMSLGELCHPVPLSFEPVKS [TRIM14], the protein stability index by setting is: (treatment: DMSO) 3.62 ± 0.22; (treatment: MLN4924 1 uM, 8 h) 4.05 ± 0.31.
In the case of EMREIRRKLRELQLRNCLRILMGE [BEX3], the protein stability index was 2.35 ± 0.38 (treatment: DMSO) and 2.28 ± 0.38 (treatment: MLN4924 1 uM, 8 h).
On the same counts, the results for ENEKLHQRVEQLTRDLAGLRQFFK [CEBPD] are 3.01 ± 1.3 and 2.55 ± 0.28.
On the same counts, the results for ENRGIVVLGINRAYGKNSLSKNLI [AUH] are 2.84 ± 1.2 and 2.44 ± 1.2.
As for EPDNWMKEVMLFGHGTRKRVPLGR [RSAD1], the protein stability index runs as follows: (treatment: DMSO) 3.69 ± 0.29; (treatment: MLN4924 1 uM, 8 h) 3.32 ± 0.15.
Take EPPVTMIFMGYQNVEDEAETKKVL [PALM]: the protein stability index was 4.07 ± 0.37 (treatment: DMSO) and 4.09 ± 0.051 (treatment: MLN4924 1 uM, 8 h).
On the same counts, the results for EQHDLVYGDWTSGENSDGCYEHFA [CLPTM1] are 4.53 ± 0.22 and 4.41 ± 0.36.
On the same counts, the results for EQHVHNEKSVLKEVSHPFLIRLFW [PRKX] are 2.25 ± 0.25 and 2.26 ± 0.081.
On the same counts, the results for EQKRLERLQRKLVEPKHCFTSPDY [SDE2] are 3.25 ± 0.35 and 3.62 ± 0.26.
As to EQRDQLERTKSRLVNTSENLSKSR [VTI1B], the protein stability index came to 5.18 ± 0.31 (treatment: DMSO) and 5.01 ± 0.18 (treatment: MLN4924 1 uM, 8 h).
In the case of ERMWAAIQSWDINSRRNINYRSFE [ZER1], the protein stability index (treatment: DMSO) is 2.28 ± 0.35 and the protein stability index (treatment: MLN4924 1 uM, 8 h) was 2.26 ± 0.25.
On the same counts, the results for ERQEEQSAAIHISETLEQKPHFES [EPB41L3] are 5.43 ± 0.15 and 5.38 ± 0.28.
On the same counts, the results for ERSRDVVDDVSVSLRLWDTFGDHH [RHOBTB2] are 3.7 ± 0.14 and 3.63 ± 0.22.
On the same counts, the results for ESDTDIYETVAAATSESTTVEPGK [DRICH1] are 5.66 ± 0.14 and 5.6 ± 0.2.
As for ESDVKHRTRDYKKTSLAPYVKVFE [PRIM1], the protein stability index runs as follows: (treatment: DMSO) 3.39 ± 0.33; (treatment: MLN4924 1 uM, 8 h) 3.62 ± 0.38.
For ESGVHGALLALDENFDHNTLALIL [PPFIA4] the same measures were 2.75 ± 0.17 and 2.96 ± 0.27.
On the same counts, the results for ESRLKRSNPLAREIFRRHFRQLCY [ZSCAN9] are 2.15 ± 0.25 and 2.34 ± 0.1.
For ESSSRGEAGAPGEEDIQGPTKADT [CHGB], the protein stability index by setting is: (treatment: DMSO) 5.64 ± 0.29; (treatment: MLN4924 1 uM, 8 h) 5.43 ± 0.32.
On the same counts, the results for ESSTREVVFPYTSKSCMRAVLEYL [RHOBTB2] are 2.74 ± 0.13 and 2.32 ± 0.25.
Take ETIQGFWLLTKIDHWNNEKERILL [TPRG1]: the protein stability index is, setting by setting: (treatment: DMSO) 2.59 ± 0.44; (treatment: MLN4924 1 uM, 8 h) 2.73 ± 0.59.
Sequence ETKLDLISKGEEPRAGKEESGVSV [SLC29A1] came in with a protein stability index (treatment: DMSO) of 5.44 ± 0.15 and a protein stability index (treatment: MLN4924 1 uM, 8 h) of 5.39 ± 0.52.
On the same counts, the results for EVEAKFKRYESHPVCADLQAKILQ [CHCHD3] are 3.66 ± 0.21 and 3.58 ± 0.078.
Consider EVEELDNWQPAVPLMHMLHLSGAL [SPATS1], for which the protein stability index runs as follows: (treatment: DMSO) 2.18 ± 0.27; (treatment: MLN4924 1 uM, 8 h) 2.16 ± 0.35.

Values taken from the supplement of paper PMC10567573.
